Among the data in paper PMC11224324 are stoichiometry N, phosphorylated Ct HPt (Ct HPt~P) on native gel after 30 min with REC-1 domain pre-phosphorylated with PAM (control of Ct HPt with PAM alone ~15%; none with AcP) and Kd values, retold here.

Experiment [1] concerns the target REC_(hHK3), REC-1 domain of hybrid histidine kinase hHK3 (group III, ortholog of Nik1) from Chaetomium thermophilum (Chaetomium thermophilum). The experiment can be described thus: SEC-MALS; 20 µg of protein injected on PROTEIN KW-403 4F (Shodex); 50 mM Hepes pH 7, 150 mM NaCl; 0.35 ml/min; without and with PAM or BeF3-. Background: In gel filtration, larger molecules generally elute earlier.

Experiment [2] addresses Ct_HPt, histidine phosphotransfer protein from Chaetomium thermophilum (residues 9-175), Streptag removed (Chaetomium thermophilum).
The target in experiment [3] is Histag-Ct_HPt (residues 9-175), labelled with Red-Tris NTA dye (Chaetomium thermophilum). The experiment is described as follows: MST; Histag-Ct_HPt labelled with Red-Tris NTA dye held constant; REC-1 domain in sixteen two-fold dilutions from 1 mM (0.32 mM for REC_hHK6); PBS + 0.05% Tween-20; medium MST power; hyperbolic fit, 1:1 model; mean of two titrations.
In experiment [4] the target is REC_(hHK6), REC-1 domain of hybrid histidine kinase hHK6 (group VI, ortholog of Sln1) from Chaetomium thermophilum (Chaetomium thermophilum). The experiment is described as follows: SEC-MALS; 20 µg of protein injected on PROTEIN KW-403 4F (Shodex); 50 mM Hepes pH 7, 150 mM NaCl; 0.35 ml/min; without and with PAM or BeF3-.

Sequence of Ct_HPt, histidine phosphotransfer protein from Chaetomium thermophilum (residues 9-175), Streptag removed (Chaetomium thermophilum) (main, as listed by the source): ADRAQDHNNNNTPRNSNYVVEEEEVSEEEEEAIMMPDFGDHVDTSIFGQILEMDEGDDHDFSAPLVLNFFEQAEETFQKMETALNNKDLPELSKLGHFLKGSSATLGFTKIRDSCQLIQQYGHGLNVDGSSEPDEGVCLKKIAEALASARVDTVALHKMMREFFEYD

One may read the stoichiometry N as a count of units in the complex or per binding partner. In experiment [1], “REC_(hHK3), REC-1 domain of hybrid histidine kinase hHK3 (group III, ortholog of Nik1) from Chaetomium thermophilum (domain or fragment)” registered a stoichiometry N of 3.
Turning to “REC_(hHK4), REC-1 domain of hybrid histidine kinase hHK4 (group IV) from Chaetomium thermophilum (domain or fragment)”, the phosphorylated Ct HPt (Ct HPt~P) on native gel after 30 min with REC-1 domain pre-phosphorylated with PAM (control of Ct HPt with PAM alone ~15%; none with AcP) in experiment [2] was 35%.
What is called Kd is the concentration at which binding is half-saturated. As for “REC_(hHK5), REC-1 domain of hybrid histidine kinase hHK5 (group V) from Chaetomium thermophilum (domain or fragment)”, in experiment [3], the Kd was determined as 94 µM.
Consider “REC_(hHK6), REC-1 domain of hybrid histidine kinase hHK6 (group VI, ortholog of Sln1) from Chaetomium thermophilum (domain or fragment)”, for which the stoichiometry N in experiment [4] amounted to 2.
For the substance “REC_(hHK11), REC-1 domain of hybrid histidine kinase hHK11 (group XI) from Chaetomium thermophilum (domain or fragment)”, the phosphorylated Ct HPt (Ct HPt~P) on native gel after 30 min with REC-1 domain pre-phosphorylated with PAM (control of Ct HPt with PAM alone ~15%; none with AcP) in experiment [2] is 35%.
